{"source": "patent US20160303253A1", "biological_target": "Human trophoblast cell-surface antigen (TROP-2) (human) (UniProt P09758)", "sequence (P09758 27-323)": "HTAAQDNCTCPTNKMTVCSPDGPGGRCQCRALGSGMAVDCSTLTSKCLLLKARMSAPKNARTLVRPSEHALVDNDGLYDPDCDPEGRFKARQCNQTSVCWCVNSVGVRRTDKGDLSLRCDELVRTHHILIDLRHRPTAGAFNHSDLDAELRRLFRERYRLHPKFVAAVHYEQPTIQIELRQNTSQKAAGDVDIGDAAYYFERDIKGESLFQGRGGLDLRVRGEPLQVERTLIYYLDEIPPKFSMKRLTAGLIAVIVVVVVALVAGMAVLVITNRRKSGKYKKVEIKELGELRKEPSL", "assay": "cell-based or functional assay"}
{"substance": "hRS7-CL2A-SN-38 (antibody)", "values": [{"measurement": "ADC/free SN-38 ratio of IC50, in vitro cytotoxicity, BxPC-3", "value": 2.8}, {"measurement": "ADC/free SN-38 ratio of IC50, in vitro cytotoxicity, COLO 205", "value": 1.91}, {"measurement": "ADC/free SN-38 ratio of IC50, in vitro cytotoxicity, Calu-3", "value": 1.39}, {"measurement": "ADC/free SN-38 ratio of IC50, in vitro cytotoxicity, Capan-1", "value": 2}, {"measurement": "ADC/free SN-38 ratio of IC50, in vitro cytotoxicity, PC-3", "value": 2.28}, {"measurement": "ADC/free SN-38 ratio of IC50, in vitro cytotoxicity, SK-MES-1", "value": 2.69}]}
